Measurements reported in publication PMC6432756.

Legend:
[1] = biological target: D-allulose 3-epimerase from Staphylococcus aureus (Staphylococcus aureus); assay: MALDI-TOF mass spectrometry; purified enzyme on HCCA matrix, acetonitrile-water 70:30 with 0.01% trifluoroacetic acid, linear mode
[2] = biological target: D-allulose 3-epimerase from Staphylococcus aureus (Staphylococcus aureus); assay: SEC; purified SaDAE on Superdex 200 Increase 10/300 GL, 20 mM Tris-HCl pH 8.0, 100 mM NaCl, 1 mM DTT; markers conalbumin (75.0 kDa) and aldolase (158.0 kDa)

## D-allulose 3-epimerase from Staphylococcus aureus (enzyme)
[1]
  stoichiometry N: 4
[2]
  stoichiometry N: 4
